Experimental data as given in publication PMC3757403.

Target: de2-7EGFR (UniProt P00533)
Test: non-reducing SDS-PAGE and Western blot of disulfide-bonded dimers; cells washed and lysed in RIPA buffer with 10 mM iodoacetamide; non-reducing Laemmli buffer; blot probed with mAb806

dimer as proportion of the total species: 25%
Substance: de2-7EGFR (from UniProt P00533 25-1210) (receptor)
